Results reported in article PMC5322562, “Dynamic regulation of GDP binding to G proteins revealed by magnetic field-dependent NMR relaxation analyses” (Nature Communications, 2017).

Target: human Gαi3 (residues 1–354), GDP-bound form (human, UniProt P08754 1-354)
Assay: cell-based or functional assay

Chain of human Gαi3 (residues 1–354), GDP-bound form (P08754 whole entry, the tested form may be a part): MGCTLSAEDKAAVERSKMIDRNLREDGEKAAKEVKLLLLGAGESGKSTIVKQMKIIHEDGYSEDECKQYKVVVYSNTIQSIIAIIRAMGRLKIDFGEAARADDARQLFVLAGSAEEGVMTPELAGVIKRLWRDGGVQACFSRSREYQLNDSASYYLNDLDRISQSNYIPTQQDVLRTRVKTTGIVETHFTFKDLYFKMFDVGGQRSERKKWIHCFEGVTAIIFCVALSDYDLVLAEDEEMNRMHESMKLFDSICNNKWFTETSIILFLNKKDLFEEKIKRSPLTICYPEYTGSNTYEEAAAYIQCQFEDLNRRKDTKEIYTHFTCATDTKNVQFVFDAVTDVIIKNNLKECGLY

IC50 of the inhibition of 3H-GDP dissociation from Gα-GDP (bound 3H-GDP after a 10 min incubation with 100 nM to 10 μM GoLoco14; 30 °C): 620 nM
B1: GoLoco14 peptide (residues 496–531 of rat RGS14) (peptide)
chain: GPLGSDIEGLVELLNRVQSSGAHDQRGLLRKEDLVLPEFLQ
